The results in this text go back to patent US20140030267A1, “COMPOSITIONS, METHODS AND KITS RELATING TO RESISTIN” (The Trustees of the University of Pennsylvania, priority 1999, published 2014).

One experiment concerns resistin gene expression. The experiment in a line: Northern blot of resistin gene expression in 3T3-L1 adipocytes treated with TZD. The class given is cell-based, murine. The settings on record: rosiglitazone 1 μM. The procedure: 3T3-L1 cells were differentiated to adipocytes then treated with the indicated vehicles (ethanol [EtOH] or dimethylsulfoxide [DMSO]) or with the indicated TZD compounds (each at 1 μM). Then, RNA was prepared and analyzed using Northern blot analysis using resistin cDNA probe.
FIG. 6 is an image of a Northern blot depicting the time course of resistin expression down-regulation by rosiglitazone. BRL49653 (rosiglitazone) was used at a concentration of 1 μM in DMSO. The Northern blot was probed using mouse resistin cDNA. The position of resistin mRNA is indicated in the image. 3T3-L1 cells were differentiated to adipocytes then treated with rosiglitazone (1 μM) for the indicated times (in hours) before RNA was isolated. Resistin expression was examined using Northern analysis using resistin cDNA probe.
To clone and identify resistin, 3T3-L1 cells were differentiated into adipocytes using a standard protocol using differentiation medium (DM) containing dexamethasone, insulin, isobutylmethylxanthine, and fetal bovine serum as described in Green and Kehinde (1975, Cell 5:19-27) and Green and Meuth (1974, Cell 3:127-133). On the seventh day of culture, the cells were treated with either dimethylsulfoxide (DMSO) or 1 micromolar BRL49653 (rosiglitazone) in DMSO. […]

The nature of experiment [1]: Glucose tolerance test in mice after administration of resistin. The class given is in vivo. As to the method:
Prior to injection into animals, 30 ml of conditioned media harvested from recombinant 293T cells expressing resistin was concentrated into 5 ml using an Ultrafree-15 centrifugal filter device (Millipore).
Male and female mice, 9 weeks of age, were administered 200 microliters of concentrated conditioned media intraperitonially just prior to the dark cycle. Mice were consequently fasted overnight. Twelve hours later, a second intraperitional dose of concentrated CM was administered to each animal. Two hours after the second administration, the mice were given a glucose challenge of 10 microliters per gram of body weight of 20% glucose in PBS solution. Blood glucose levels were determined using a Fast-Take glucometer (Johnson & Johnson) at thirty minute intervals for a two hour period.
The blood glucose levels of mice dosed with resistin are depicted using dotted lines in FIG. 21, and control glucose values are indicated using solid lines (FIG. 21). More specifically, eight female mice (4 per group) were treated with either vehicle (solid lines) or resistin preparation (dashed lines) prepared using conditioned medium obtained from recombinant 293T cells as described elsewhere herein.

With `CN(CCOc1ccc(CC2SC(=O)NC2=O)cc1)c1ccccn1` (stereo not drawn) [rosiglitazone], the “time after exposure at which the effect on resistin expression is maximal” value with resistin gene expression was 48 h.

B1: resistin: mouse resistin (SEQ ID NO:2) in concentrated conditioned medium of recombinant 293T cells expressing resistin (protein)
chain: SSMPLCPIDEAIDKKIKQDFNSLFPNAIKNIGLNCWTVSSRGKLASCPEGTAVLSCSCGSACGSWDIRGGKVCHCQCARIDWTAARCCKLQVAS
Regarding B1, in experiment [1] (female mice, intraperitoneal resistin preparation, 30 minutes after glucose challenge), the “blood glucose 30 minutes after glucose administration” value is 395.+−0.67 mg/dl. In experiment [1] (mice, resistin preparation), the glucose tolerance entry is given as “reducing glucose tolerance to diabetic levels”.
